Biological target: recombinant prefusion stabilized SARS-CoV-2-2P spike protein (SARS-CoV-2) (UniProt P0DTC2)

D72-15: VHH72-GS-hIgG1hinge-hIgG1Fc-L234A-L235A-P329G (Fc fusion)
EC50: 0.014 µg/mL
